Laboratory results: US20200199213A1 (Eli Lilly, published 2020)
Like-named read-outs stand apart in the source and are kept apart here.

Legend:
mouse ANGPTL3/8 complex [1] = target: T1, mouse ANGPTL3/8 complex (mouse, UniProt Q9R182 17-455; Q8R1L8 16-198, limits assumed); experiment: cell-based or functional assay
T1 sequence (looked up) 1: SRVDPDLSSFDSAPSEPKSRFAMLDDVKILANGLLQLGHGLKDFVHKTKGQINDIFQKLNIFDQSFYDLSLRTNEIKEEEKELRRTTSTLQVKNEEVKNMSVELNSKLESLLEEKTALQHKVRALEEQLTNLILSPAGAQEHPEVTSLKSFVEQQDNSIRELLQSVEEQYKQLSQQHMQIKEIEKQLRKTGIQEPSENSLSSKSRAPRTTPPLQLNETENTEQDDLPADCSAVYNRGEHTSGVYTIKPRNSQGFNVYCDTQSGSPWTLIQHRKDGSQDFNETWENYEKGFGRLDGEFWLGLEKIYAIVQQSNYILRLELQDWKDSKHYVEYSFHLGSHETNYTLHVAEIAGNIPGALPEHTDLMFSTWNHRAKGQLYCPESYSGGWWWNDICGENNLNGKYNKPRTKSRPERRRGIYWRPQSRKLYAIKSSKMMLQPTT
T1 sequence (looked up) 2: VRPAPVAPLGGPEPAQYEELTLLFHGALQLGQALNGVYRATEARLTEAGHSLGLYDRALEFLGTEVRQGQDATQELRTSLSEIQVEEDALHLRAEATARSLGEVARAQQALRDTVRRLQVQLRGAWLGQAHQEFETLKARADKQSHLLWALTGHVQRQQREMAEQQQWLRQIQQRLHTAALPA

rat ANGPTL3/8 complex = rat ANGPTL3/8 complex (rat, UniProt F7FHP0 17-446); experiment: cell-based or functional assay
Chain of rat ANGPTL3/8 complex (F7FHP0 entry or part of it, one chain of several): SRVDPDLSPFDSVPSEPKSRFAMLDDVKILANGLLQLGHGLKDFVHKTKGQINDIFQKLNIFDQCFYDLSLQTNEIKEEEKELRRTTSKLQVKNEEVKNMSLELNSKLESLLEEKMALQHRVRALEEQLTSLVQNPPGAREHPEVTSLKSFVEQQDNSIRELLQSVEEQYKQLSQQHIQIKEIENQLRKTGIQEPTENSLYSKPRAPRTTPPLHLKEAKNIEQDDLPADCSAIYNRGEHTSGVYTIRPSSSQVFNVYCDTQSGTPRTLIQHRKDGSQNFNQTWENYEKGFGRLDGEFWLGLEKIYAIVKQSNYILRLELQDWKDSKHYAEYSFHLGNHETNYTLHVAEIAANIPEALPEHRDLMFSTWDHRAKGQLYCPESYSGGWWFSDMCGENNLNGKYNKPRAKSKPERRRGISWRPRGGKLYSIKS

human ANGPTL3/8 complex [2] = target: T2, human ANGPTL3/8 complex (human, UniProt Q9Y5C1 17-460; Q6UXH0 22-198, limits assumed); experiment: cell-based or functional assay
T2 sequence 1: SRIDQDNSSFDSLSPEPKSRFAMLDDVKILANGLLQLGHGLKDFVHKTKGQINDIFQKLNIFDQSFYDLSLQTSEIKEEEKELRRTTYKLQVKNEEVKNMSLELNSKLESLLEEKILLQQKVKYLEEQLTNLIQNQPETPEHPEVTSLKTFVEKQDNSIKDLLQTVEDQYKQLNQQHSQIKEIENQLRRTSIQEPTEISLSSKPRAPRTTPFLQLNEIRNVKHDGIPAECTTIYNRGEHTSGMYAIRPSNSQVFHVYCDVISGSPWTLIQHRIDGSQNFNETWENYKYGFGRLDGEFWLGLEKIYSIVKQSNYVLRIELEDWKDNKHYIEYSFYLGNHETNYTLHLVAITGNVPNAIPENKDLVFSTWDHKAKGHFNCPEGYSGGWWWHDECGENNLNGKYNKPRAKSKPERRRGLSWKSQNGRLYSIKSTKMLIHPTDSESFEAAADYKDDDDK
T2 sequence 2: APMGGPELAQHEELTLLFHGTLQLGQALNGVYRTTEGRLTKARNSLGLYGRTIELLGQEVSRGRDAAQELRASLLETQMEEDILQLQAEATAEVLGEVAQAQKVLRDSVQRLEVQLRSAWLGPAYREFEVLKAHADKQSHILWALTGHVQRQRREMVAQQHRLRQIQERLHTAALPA

mouse ANGPTL3/8 complex [3] = target: T1, mouse ANGPTL3/8 complex; experiment: SPR, Biacore T200; Ab captured on Human Fab Binder, complex injected; pH 7.4, 25 C
[4] = target: T3, cynomolgus ANGPTL3/8 complex (cynomolgus, UniProt A0A2K5UDC5 17-460; A0A2K5WWS3 22-198); experiment: as above
T3 construct: also called cyno ANGPTL3/8
T3 sequence 1: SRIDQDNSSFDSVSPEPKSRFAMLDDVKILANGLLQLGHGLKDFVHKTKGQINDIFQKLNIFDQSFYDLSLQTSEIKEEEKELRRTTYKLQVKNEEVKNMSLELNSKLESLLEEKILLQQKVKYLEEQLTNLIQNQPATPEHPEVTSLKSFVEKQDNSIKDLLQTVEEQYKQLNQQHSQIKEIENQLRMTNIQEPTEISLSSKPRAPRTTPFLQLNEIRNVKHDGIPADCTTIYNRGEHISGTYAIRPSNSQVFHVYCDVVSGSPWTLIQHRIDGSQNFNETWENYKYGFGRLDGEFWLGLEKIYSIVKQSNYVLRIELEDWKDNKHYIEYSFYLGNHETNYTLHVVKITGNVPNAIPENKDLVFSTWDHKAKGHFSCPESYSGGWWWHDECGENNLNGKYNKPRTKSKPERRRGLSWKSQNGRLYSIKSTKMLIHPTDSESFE
T3 sequence 2: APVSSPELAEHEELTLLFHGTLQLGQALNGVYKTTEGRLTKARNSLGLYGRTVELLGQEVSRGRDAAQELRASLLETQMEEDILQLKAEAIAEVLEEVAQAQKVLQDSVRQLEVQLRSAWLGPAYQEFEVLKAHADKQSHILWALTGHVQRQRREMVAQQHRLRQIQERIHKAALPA

human ANGPTL3/8 complex [5] = target: T2, human ANGPTL3/8 complex; experiment: as above
mouse ANGPTL3/8 complex [6] = target: T1, mouse ANGPTL3/8 complex; experiment: as above; remark: listed apart in the source
[7] = target: T3, cynomolgus ANGPTL3/8 complex; experiment: as above; remark: listed apart in the source
human ANGPTL3/8 complex [8] = target: T2, human ANGPTL3/8 complex; experiment: as above; remark: listed apart in the source

B1: anti-ANGPTL3/8 complex Ab having a LC of SEQ ID NO:5 and a HC of SEQ ID NO:6 (antibody, human IgG4 S228P, kappa, F234A L235A, V domains shown)
VH: QVTLKESGPTLVKPTQTLTLTCTFSGFSLSISGVGVGWIRQPPGKALEWLALIYRNDDKRYSPSLKSRLTITKDTSKNQVVLTLTNMDPVDTATYYCARTYSSGWYGNWFDPWGQGTLVTVSS
VL: DIVMTQTPLSLPVTPGEPASISCRSSQSLLDSDDGNTYLDWYLQKPGQSPQLLIYMLSYRASGVPDRFSGSGSGTDFTLKISRVEAEDVGIYYCMQRIEFPLTFGGGTKVEIKR
notes: In the ELISA assays tested as IgG from CHO supernatants; also called the Ab
Mouse ANGPTL3/8 complex [1]
  % Max Derepression of LPL: 103%
  Ab EC50 (nM), derepression of LPL: 1.38 nM
Rat ANGPTL3/8 complex
  % Max Derepression of LPL: 105%
  Ab EC50 (nM), derepression of LPL: 2.77 nM
Human ANGPTL3/8 complex [2]
  % Max Derepression of LPL: 102%
  Ab EC50 (nM), derepression of LPL: 0.28 nM
Mouse ANGPTL3/8 complex [3]
  Kd: 0.366 nM
  koff: 0.000172 s⁻¹
  kon: 475000 M⁻¹ s⁻¹
[4]
  Kd: 0.213 nM
  koff: 9.91e-05 s⁻¹
  kon: 491000 M⁻¹ s⁻¹
Human ANGPTL3/8 complex [5]
  Kd: 0.135 nM
  koff: 6.31e-05 s⁻¹
  kon: 477000 M⁻¹ s⁻¹

B2: Ab with LC variant having a D31S mutation (SEQ ID NO:21) and a HC of SEQ ID NO:6 (antibody, human IgG4 S228P, kappa, F234A L235A, V domains shown)
VH: QVTLKESGPTLVKPTQTLTLTCTFSGFSLSISGVGVGWIRQPPGKALEWLALIYRNDDKRYSPSLKSRLTITKDTSKNQVVLTLTNMDPVDTATYYCARTYSSGWYGNWFDPWGQGTLVTVSS
VL: DIVMTQTPLSLPVTPGEPASISCRSSQSLLSSDDGNTYLDWYLQKPGQSPQLLIYMLSYRASGVPDRFSGSGSGTDFTLKISRVEAEDVGIYYCMQRIEFPLTFGGGTKVEIKR
notes: also called D31S Variant Ab; D31S Ab
Mouse ANGPTL3/8 complex [6]
  Kd: 0.218 nM
  koff: 0.000108 s⁻¹
  kon: 496000 M⁻¹ s⁻¹
[7]
  Kd: 0.365 nM
  koff: 0.000168 s⁻¹
  kon: 462000 M⁻¹ s⁻¹
Human ANGPTL3/8 complex [8]
  Kd: 0.116 nM
  koff: 5.75e-05 s⁻¹
  kon: 497000 M⁻¹ s⁻¹
